The nature of series [1]: Solubilizing of paclitaxel. The series is classed as physicochemical. The conditions noted are these: 30 μL of 10 mg/ml paclitaxel in ethanol + 500 μL of 2% aqueous solution. How it is done:
A 10 mg/ml ethanol solution of paclitaxel was prepared as (a PTX solution).
A 2% gelatin aqueous solution was prepared as a gelatin solution.

For series [2], the system named is macrophage. Briefly: Test of macrophage adhesion property (SEM). The class given is cell-based, mouse. The following applies: crosslinked with heating at 160° C. for 3 hours, cultured 24 hours. How it is done:
1 g of gelatin or a derivative thereof was dissolved in 10 mL of purified water while heating. This resulting polymer solution was injected into a PFA made laboratory dish and allowed to stand at 4° C. for 12 hours to conduct gelation sufficiently. The resulting gel was lyophilized and then subjected to cross-linking treatment with heating at 160° C. for 3 hours under reduced pressure in vacuum.
First, to 10-week old female ddy mouse, 2 ml of a previously sterilized Brewer's thioglycolate medium (manufactured by Difco Co.) was administered to intraperitoneal. After 5 days, the mouse was killed with blood-letting and 5 ml of PBS(−) cooled at 4° C. was administered intraperitoneal. After 5 minutes, about 4 ml of intraperitoneal effusion was recovered and was centrifuged at 8000 revolution/min for about 5 minutes to prepare a cell mass of effused macrophage. To the cell mass, 2 ml of RPMI1640 medium containing 10% FCS was added and sufficiently suspended.
Next, a specimen prepared in accordance with “the method of preparing the specimen for evaluating adhesion of macrophage” according to the above-mentioned (1) was sufficiently swelled with a RPMI1640 medium to prepare a specimen for evaluating the adhesion property of macrophage. […] Surface observation was carried out by a scanning electron microscope (Hitachi Type S-3000N) and the adhesion of macrophage was evaluated.

The test system of series [3] is trypsin. Kind of series: In vitro stability test to enzyme: trypsin + second solution, SDS-PAGE. The class given is in vitro ADME. The conditions noted are these: trypsin (10 U/mL) + second solution. The protocol: (§1) Of the various PEG-grafted gelatin derivatives prepared in Example 22, 50 mg of a gelatin derivative prepared by using 2-fold mols of PEG having a molecular weight of 5000 was dissolved in 1 ml of DDW (50 mg/mL). 500 μL of the resulting solution was added to 4.5 ml of each of a Japanese Pharmacopoeia first solution (pH 1.2), a second solution (pH 6.8), pepsin (10 U/mL)+first solution or trypsin (10 U/mL)+second solution and subjected to disintegration test. The test was carried out under the conditions based on Japanese Pharmacopoeia disintegration test. The decomposition of the gelatin was evaluated by carrying out SDS-PAGE of the sample prepared after the test. Further, 500 μL of the sample was added to 4.5 mL of DDW to prepare a control group.
(§2) 50 mg of gelatin, which was not subjected to PEG grafting, was dissolved in 1 ml of DDW. 500 μL of the resulting solution was added to 4.5 mL of each of DDW, first solution, second solution, pepsin+first solution and trypsin+second solution, respectively, and then, subjected to disintegration test. The test was carried out under the conditions based on Japanese Pharmacopoeia disintegration test. The decomposition of the gelatin was evaluated by carrying out SDS-PAGE of the sample prepared after the test.

Series [4] concerns pepsin. Briefly: In vitro stability test to enzyme: pepsin + first solution, SDS-PAGE. The class given is in vitro ADME. The following applies: pepsin (10 U/mL) + first solution. How it is done:
as §1, §2

Series [5] can be described thus: Critical micelle formation concentration (CMC) by PNA incorporation. The following applies: isotonic phosphate buffer pH 7.4, PNA incorporation. The class given is physicochemical. The protocol:
With regard to the PEG-grafted gelatin prepared, the critical micelle formation concentration (CMC) was measured. The CMC was measured by incorporating N-phenyl-1-naphtylamine (PNA) into the micelle. Using an isotonic phosphate buffer with a pH of 7.4, various concentrations—having PEG-grafted gelatin aqueous solutions were prepared. 0.1 ml of the PNA solution dissolved in methanol having a concentration of 5.0×10^−3M was added to 2 ml of the PEG-grafted gelatin solution and stirred for 2 minutes. Thereafter, the absorbance at a wavelength of 500 nm was measured using a spectrophotometer.
With regard to the PEG-grafted succinated gelatin prepared, the critical micelle forming concentration (CMC) was measured. The CMC was measured by incorporating N-phenyl-1-naphtyl amine (PNA) into the micelle. Using an isotonic phosphate buffer with a pH of 7.4, PEG-grafted succinated gelatin aqueous solutions with various concentrations were prepared. […] Thereafter, the absorbance at a wavelength of 500 nm was measured using a spectrophotometer.
Micelle solutions were prepared in accordance with the method of Example 3 from the PEG-grafted gelatin derivatives prepared in Example 22 and the CMC of each derivative was measured in accordance with Example 5.

Series [6] can be described thus: Micelle form by affinity column (HiTrap Blue HP) that adsorbs gelatin. The series is classed as physicochemical. The conditions noted are these: pH 7.4 bonding buffer, 2M NaCl elution. The protocol:
The forms of the core and the shell of micelle were studied using affinity column, which adsorbs gelatin. Namely, HiTrap (Trade Mark) Blue HP column (manufactured by Amersham Pharmacia Co., Ltd.) was washed with 10 ml of an isotonic phosphate buffer with a pH of 7.4 and thereafter, 0.5 ml of a PEG-grafted gelatin micelle solution was applied. 5 ml of the isotonic phosphate buffer with a pH of 7.4 was used as a bonding buffer and 5 ml of a 2M aqueous sodium chloride solution was used as an elution buffer. The solution was fractionated with each 0.4 ml portions and the gelatin in each of the fractions was measured by the Lowery method.
The forms of the core and the shell of the micelle was studied using affinity column in which gelatin was adsorbed. Namely, HiTrap (Trade Mark) Blue HP column (manufactured by Amersham Pharmacia Co., Ltd.) was washed with 10 ml of an isotonic phosphate buffer with a pH of 7.4 and thereafter, 0.5 ml of a PEG-grafted gelatin micelle solution was applied. 5 ml of the pH isotonic phosphate buffer with a pH of 7.4 was used as a bonding buffer and 5 ml of a 2M aqueous sodium chloride solution was used as an elution buffer. The solution was fractionated with each 0.4 ml portions and the gelatin in each fraction was measured by the Lowery method. […]

A short description of series [7]: In vitro disintegration test in Japanese Pharmacopoeia first and second solutions, SDS-PAGE. The series is classed as physicochemical. How it is done: as §1, §2

In the case of gelatin, in series [1], the “appearance on mixing with paclitaxel solution” value was “white precipitation”. In series [2], the “adhesion of macrophage to the surface” value is recorded as “tightly covered with the cells such as macrophage”. The “lowering of the gelatin molecular weight” value is “a lowering of the gelatin molecular weight was confirmed” in series [3]; “a lowering of the gelatin molecular weight was confirmed” in series [4]; “a lowering of the gelatin molecular weight was confirmed” in series [7] (Japanese Pharmacopoeia first solution (pH 1.2)); “except for the control group and the second solution, a lowering of the gelatin molecular weight was confirmed” in series [7] (Japanese Pharmacopoeia second solution (pH 6.8)). Further, the “CMC (whether admitted)” value in series [5] is “CMC was not admitted”. Also, in series [6], the “adsorption to affinity column” value was “adsorbed to the affinity column”.
